The source of these data is patent publication US20040063184A1, “Fermentation processes and compositions” (priority 2002, published 2004).

Holding throughout (assay type): cell-based
The test system of assay [1] is yeast. Put plainly: Example 4: LSF ethanol fermentation with lipases, purified lipases, ferric sulfate. The following applies: Candida antarctica lipase 400 LU/g DS, purified lipases 100 LU/g DS. As to the method:
Example 4 was conducted on dry milled corn according to a simultaneous liquefaction5 saccharification-fermentation (LSF) protocol. The experiment was carried out on ground yellow corn using a glucoamylase and alpha amylase for fermenting ethanol with and without lipase, as described in examples 2 and 3. Fermentations were carried out at pH=5.0, 32° C. for several hours. In addition to Candida antarctica lipase and inactivated Candida antarctica lipase, feric sulfate and purified lipases from Candida cylindracea lipase and Candida antarctica lipase A, were also compared. Four times less of the purified lipase was used.

The subject of assay [2] is yeast. As to the kind of experiment: Example 14: LSF ethanol fermentation with and without laccase. The following applies: additive with glucoamylase: 0.1 M NaCl & 0.7 GAU/g DS, NZ 525 0.5% DS & 0.9 GAU/g DS, laccase 0.2% DS & 1.0 GAU/g DS. As for the experimental part: The addition of a laccase was tested under anaerobic fermentation conditions analogous to ethanol fermenting experiments. The experiment was conducted on dry milled yellow corn according to a simultaneous liquefaction-saccharification-fermentation (LSF) protocol. The experiment was carried out using a glucoamylase (Spirizyme plus, available from Novozymes A/S) for fermenting ethanol, with and without laccase. Fermentations were carried out at pH=5.0, 32° C. for several hour. The process was monitored with time and analyzed for CO2 weight loss, percent ethanol produced and theoretical conversion of the starch.

In assay [3] the test system is Ethanol Red yeast. Put plainly: Example 10: Lipolase 100 T versus purified Lipolase. As to the method: In this example, Lipolase 100 T and purified Lipolase (both available from Novozymes A/S) were compared. The Experimental conditions were as follows: Ethanol Red yeast, 36% DS, 1.5 GAU/g DS Spirizyme Fuel, 0.8 AFAU/g DS SP 288. Yeast was propagated with maltodextrin and protease. Fermentation was carried out in 25-ml fermentors at 32.2° C. without mixing for 72 h. A control was run as described, without the addition of lipase.

In assay [4] the test system is yeast. As to the kind of experiment: Example 2: LSF ethanol fermentation of ground yellow corn with esterases. The conditions noted are these: esterase 200 U/g DS. As to the method: Example 2 was conducted on dry milled ground yellow corn according to a simultaneous liquefaction-saccharification-fermentation (LSF) protocol. The experiment was carried out using a glucoamylase (Spirizyme Plus, available from Novozymes A/S) in an amount of 0.8 GAU/g DS and a fungal alpha amylase (SP288, available from Novozymes A/S) in an amount of 2.6 AFAU/g DS for fermenting ethanol along with the addition of:
(A) lipase (LIPOLASE, available from Novozymes A/S),
(B) Candida antarctica lipase,
(C) cutinase (JC 492, available from Novozymes A/S)
(D) phospholipase (LECITASE available from Novozymes A/S),
(E) inactivated Candida antarctica lipase (inactivated by boiling for three hours), and
(F) a control (glucoamylase and amylase without esterase addition).
The esterases were added in an amount corresponding to 200 U/g DS. Fermentations were carried out at pH=5.0, 32° C. for several hours. The process was monitored with time and ana20 lyzed for CO2 weight loss, percent ethanol produced and theoretical conversion of the starch.

Assay [5] concerns Ethanol Red yeast. As to the kind of experiment: Example 8: as Example 6 with protease in the fermentation medium. As for the experimental part:
This experiment was carried out using the same experimental conditions and enzyme concentrations described in Example 6, with the exception that protease (Novozyme 50006, 0.007% DS) was also added to the fermentation medium with an increased sample volume.
To eliminate the possibility that a substance in the CALB formulation was contributing to the effect obtained, inactivated CALB was also used. A control was prepared by inactivating CALB by boiling for 3 hours. Upon completion of boiling, the volume was adjusted to the initial value with DI water, and sample was spun down at 3,000 rpm for 20 min. The liquid layer was forced through the 0.45-μm filter. The enzyme was thereby completely inactivated.

Turning to `O=S(=O)([O-])[O-].O=S(=O)([O-])[O-].O=S(=O)([O-])[O-].[Fe+3].[Fe+3]` [Fe2(SO4)3], the entries for the “Calculated ethanol, % v/v” value in the assay on yeast [1] (24 h), with yeast [1] (48 h) and with yeast [1] (72 h) were 11.58 ± 0.13 % v/v, 16.87 ± 0.43 % v/v and 18.82 ± 0.91 % v/v, respectively. For the same molecule, the results for the “Efficiency, %” value in the assay with yeast [1] (24 h), in the assay with yeast [1] (48 h) and in the assay on yeast [1] (72 h) were 52.79 ± 0.67%, 81.84 ± 2.57% and 91.00 ± 2.45%, respectively.

In the case of `[Cl-].[Na+]` [NaCl], the “HPLC ethanol, % v/v” value with yeast [2] (7 h) turned out to be 1.88 % v/v; in the assay on yeast [2] (23 h) it was 7.91 % v/v; in the assay with yeast [2] (29 h), 8.78 % v/v; with yeast [2] (47 h), 10.30 % v/v; in the assay with yeast [2] (55 h), 10.94 % v/v; with yeast [2] (119 h), 14.61 % v/v.

B1: Lipolase (purified): purified Lipolase, available from Novozymes A/S (protein, UniProt O59952 23-291, looked up)
Lipase: EVSQDLFNQFNLFAQYSAAAYCGKNNDAPAGTNITCTGNACPEVEKADATFLYSFEDSGVGDVTGFLALDNTNKLIVLSFRGSRSIENWIGNLNFDLKEINDICSGCRGHDGFTSSWRSVADTLRQKVEDAVREHPDYRVVFTGHSLGGALATVAGADLRGNGYDIDVFSYGAPRVGNRAFAEFLTVQTGGTLYRITHTNDIVPRLPPREFGYSHSSPEYWIKSGTLVPVTRNDIVKIEGIDATGGNNQPNIPDIPAHLWYFGLIGTCL
For the molecule B1, in the assay with Ethanol Red yeast [3] (1 LU/g DS), the “Change, % v/v vs. control (efficiency)” value is listed as “+1.00 % v/v”; the “Change, % v/v vs. control (ethanol)” value is on record as “+0.31 % v/v”; the “Efficiency, %” value is on record as 84.00%; the “Ethanol, % v/v in beer” value turned out to be 18.41 % v/v. Further, in the assay on Ethanol Red yeast [3] (10 LU/g DS), the “Change, % v/v vs. control (efficiency)” value was “+0.49 % v/v”; the “Change, % v/v vs. control (ethanol)” value was “+0.52 % v/v”; the “Efficiency, %” value is on record as 83.49%; the “Ethanol, % v/v in beer” value was 18.62 % v/v. Also, in the assay with Ethanol Red yeast [3] (100 LU/g DS), the “Change, % v/v vs. control (efficiency)” value is “+0.57 % v/v”; the “Change, % v/v vs. control (ethanol)” value is given as “+0.14 % v/v”; the “Efficiency, %” value was determined as 83.57%; the “Ethanol, % v/v in beer” value was 18.24 % v/v.

B2: Candida antarctica lipase inactive: Candida antarctica lipase inactivated by boiling for three hours (protein, UniProt P41365 26-342, looked up)
Lipase B: LPSGSDPAFSQPKSVLDAGLTCQGASPSSVSKPILLVPGTGTTGPQSFDSNWIPLSTQLGYTPCWISPPPFMLNDTQVNTEYMVNAITALYAGSGNNKLPVLTWSQGGLVAQWGLTFFPSIRSKVDRLMAFAPDYKGTVLAGPLDALAVSAPSVWQQTTGSALTTALRNAGGLTQIVPTTNLYSATDEIVQPQVSNSPLDSSYLFNGKNVQAQAVCGPLFVIDHAGSLTSQFSYVVGRSALRSTTGQARSADYGITDCNPLPANDLTPEQKVAAAALLAPAAAAIVAGPKQNCEPDLMPYARPFAVGKRTCSGIVTP
modifications: heat-inactivated by boiling
In the case of B2, the “Calculated ethanol, % v/v” value is on record as 11.43 ± 0.08 % v/v in the assay with yeast [4] (24 h); 16.88 ± 0.15 % v/v in the assay on yeast [4] (48 h); 10.59 ± 0.16 % v/v in the assay with yeast [1] (24 h); 16.91 ± 0.30 % v/v with yeast [1] (48 h); 18.65 ± 0.40 % v/v in the assay with yeast [1] (72 h). For the same molecule, the “Efficiency, %” value with yeast [4] (24 h) was 52.88 ± 0.40%; in the assay with yeast [4] (48 h) it was 83.18 ± 0.89%; in the assay with yeast [4] (72 h), 90.89 ± 0.25%; in the assay with yeast [1] (24 h) it was 49.33 ± 0.85%; in the assay with yeast [1] (48 h), 84.73 ± 1.77%; in the assay on yeast [1] (72 h), 95.49 ± 2.53%. Moreover, the “HPLC ethanol, % v/v” value with yeast [4] (72 h) came out at 19.49 ± 0.04 % v/v. Further, in the assay on Ethanol Red yeast [5], the “effect on ethanol yield and efficiency” value is “no significant difference between ethanol yield of control samples and ethanol yield of samples treated with inactivated CALB”.
